# Values of other authors in PMC4372107.
# “And” between values parts separate entries of the source, which are not always exact repeats. Identical values can stand only once.
# Target: U2AF65 RRM123 (Homo sapiens) (UniProt P26368)
# Assay: ITC
# Chain of UniProt P26368 (P26368 148-475, one chain of several): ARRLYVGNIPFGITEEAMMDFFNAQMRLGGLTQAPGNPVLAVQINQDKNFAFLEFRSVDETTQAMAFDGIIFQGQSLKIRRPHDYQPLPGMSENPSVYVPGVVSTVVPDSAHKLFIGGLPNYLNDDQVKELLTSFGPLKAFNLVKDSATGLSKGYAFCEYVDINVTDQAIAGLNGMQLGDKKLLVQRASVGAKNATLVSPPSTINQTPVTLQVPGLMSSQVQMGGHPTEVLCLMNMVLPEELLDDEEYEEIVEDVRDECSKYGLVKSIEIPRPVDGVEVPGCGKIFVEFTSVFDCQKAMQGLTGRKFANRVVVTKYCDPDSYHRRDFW
substance,measurement,value
SF1 (from UniProt Q15637),Kd,114 nM and 96 nM
